In US20240279630, “ISOLATED CAS13 PROTEIN AND USE THEREOF” (GUANGZHOU REFORGENE MEDICINE CO., LTD., published 2024) one finds activity (relative mRNA level) and activity data, which are given here for seven molecules.

Data set [1] concerns CasRx (Cas13d). Description: cell_activity.
The target in data set [2] is T1, Cas13m.3 (uncultured Bacteroidetes bacterium).
T1 chain: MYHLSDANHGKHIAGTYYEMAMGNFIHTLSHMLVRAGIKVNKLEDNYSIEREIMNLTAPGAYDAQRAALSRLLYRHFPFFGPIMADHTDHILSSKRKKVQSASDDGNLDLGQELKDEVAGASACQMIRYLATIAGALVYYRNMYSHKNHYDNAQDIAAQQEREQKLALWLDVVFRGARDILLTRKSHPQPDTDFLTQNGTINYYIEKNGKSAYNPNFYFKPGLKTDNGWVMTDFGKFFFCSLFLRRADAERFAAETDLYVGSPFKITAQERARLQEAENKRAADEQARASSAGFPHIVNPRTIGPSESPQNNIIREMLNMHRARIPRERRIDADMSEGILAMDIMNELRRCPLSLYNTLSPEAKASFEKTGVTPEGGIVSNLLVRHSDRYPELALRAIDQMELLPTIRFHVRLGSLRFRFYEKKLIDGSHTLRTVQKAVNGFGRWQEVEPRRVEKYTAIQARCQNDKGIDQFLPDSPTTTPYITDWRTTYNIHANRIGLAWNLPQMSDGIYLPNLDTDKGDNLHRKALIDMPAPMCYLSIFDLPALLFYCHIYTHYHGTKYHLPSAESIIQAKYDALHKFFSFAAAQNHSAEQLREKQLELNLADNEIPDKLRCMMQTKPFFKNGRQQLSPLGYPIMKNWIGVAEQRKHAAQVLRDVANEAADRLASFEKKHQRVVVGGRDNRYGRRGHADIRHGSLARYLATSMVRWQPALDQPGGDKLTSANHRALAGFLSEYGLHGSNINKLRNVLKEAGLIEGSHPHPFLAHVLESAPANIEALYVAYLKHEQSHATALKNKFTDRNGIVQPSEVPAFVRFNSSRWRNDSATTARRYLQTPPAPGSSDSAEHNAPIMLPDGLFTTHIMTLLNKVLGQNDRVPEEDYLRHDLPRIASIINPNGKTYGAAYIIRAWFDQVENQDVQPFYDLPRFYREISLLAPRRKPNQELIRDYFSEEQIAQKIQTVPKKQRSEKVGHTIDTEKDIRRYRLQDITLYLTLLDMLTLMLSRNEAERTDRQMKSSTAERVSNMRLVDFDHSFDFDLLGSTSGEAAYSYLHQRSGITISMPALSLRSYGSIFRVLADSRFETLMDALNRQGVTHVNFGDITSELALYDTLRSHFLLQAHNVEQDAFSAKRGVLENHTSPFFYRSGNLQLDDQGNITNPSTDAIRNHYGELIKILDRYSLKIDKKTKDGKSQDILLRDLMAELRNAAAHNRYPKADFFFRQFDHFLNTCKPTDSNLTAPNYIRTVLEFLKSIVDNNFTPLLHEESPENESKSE
Description: cell_activity; 293T, 72 h. Conditions: tags: NLS fusion. How it is done: (§1) The 293T cells were transfected with the PTBP1-targeting plasmids of Cas13 m.2, Cas13 m.3, Cas13 m.5, CasRfg.2 and CasRx at 800 ng in a 24-well plate. The negative control group was transfected with the CasRx-BpiI plasmid.
(§2) The transfection method was as follows: [0276] 1) The cells were digested by trypsin (0.25% of Trypsin, EDTA, Thermo, 11058021), counted, and plated into a 24-well plates at 2×10⁵ cells according to 500 uL per well. [0277] 2) For each transfected sample, the complex was prepared according to the following steps: [0278] a. each well of the 24-well plate into which the cells were added, were added with 50 uL of serum-free Opti-MEM I (Thermo, 25200056) reduced serum medium for dilution of the aforementioned plasmid DNA, and mixed gently; [0279] b. it was gently mixed with Lipofectamine 2000 (Thermo, 11668019) before use, and then 1.8 uL of the Lipofectamine 2000 was diluted in each well, i.e., in 50 uL of the Opti-MEM I medium. It was incubated at room temperature for 5 minutes. Note: it was continued to perform step c within 25 minutes; [0280] c. after incubation for 5 minutes, the diluted DNA was combined with the diluted Lipofectamine 2000. They were gently mixed and incubated at room temperature for 20 minutes (the solution might be cloudy visually). Note: the complex was stabilized at room temperature for 6 hours.
(§3) The complex was added into the cells and mixed, and then detected with a QuantStudio™ 5 Real-Time PCR System, 96-well after 72 h.

The target of data set [3] is T2, Cas13m.5 (Bacteroidetes bacterium).
T2 chain: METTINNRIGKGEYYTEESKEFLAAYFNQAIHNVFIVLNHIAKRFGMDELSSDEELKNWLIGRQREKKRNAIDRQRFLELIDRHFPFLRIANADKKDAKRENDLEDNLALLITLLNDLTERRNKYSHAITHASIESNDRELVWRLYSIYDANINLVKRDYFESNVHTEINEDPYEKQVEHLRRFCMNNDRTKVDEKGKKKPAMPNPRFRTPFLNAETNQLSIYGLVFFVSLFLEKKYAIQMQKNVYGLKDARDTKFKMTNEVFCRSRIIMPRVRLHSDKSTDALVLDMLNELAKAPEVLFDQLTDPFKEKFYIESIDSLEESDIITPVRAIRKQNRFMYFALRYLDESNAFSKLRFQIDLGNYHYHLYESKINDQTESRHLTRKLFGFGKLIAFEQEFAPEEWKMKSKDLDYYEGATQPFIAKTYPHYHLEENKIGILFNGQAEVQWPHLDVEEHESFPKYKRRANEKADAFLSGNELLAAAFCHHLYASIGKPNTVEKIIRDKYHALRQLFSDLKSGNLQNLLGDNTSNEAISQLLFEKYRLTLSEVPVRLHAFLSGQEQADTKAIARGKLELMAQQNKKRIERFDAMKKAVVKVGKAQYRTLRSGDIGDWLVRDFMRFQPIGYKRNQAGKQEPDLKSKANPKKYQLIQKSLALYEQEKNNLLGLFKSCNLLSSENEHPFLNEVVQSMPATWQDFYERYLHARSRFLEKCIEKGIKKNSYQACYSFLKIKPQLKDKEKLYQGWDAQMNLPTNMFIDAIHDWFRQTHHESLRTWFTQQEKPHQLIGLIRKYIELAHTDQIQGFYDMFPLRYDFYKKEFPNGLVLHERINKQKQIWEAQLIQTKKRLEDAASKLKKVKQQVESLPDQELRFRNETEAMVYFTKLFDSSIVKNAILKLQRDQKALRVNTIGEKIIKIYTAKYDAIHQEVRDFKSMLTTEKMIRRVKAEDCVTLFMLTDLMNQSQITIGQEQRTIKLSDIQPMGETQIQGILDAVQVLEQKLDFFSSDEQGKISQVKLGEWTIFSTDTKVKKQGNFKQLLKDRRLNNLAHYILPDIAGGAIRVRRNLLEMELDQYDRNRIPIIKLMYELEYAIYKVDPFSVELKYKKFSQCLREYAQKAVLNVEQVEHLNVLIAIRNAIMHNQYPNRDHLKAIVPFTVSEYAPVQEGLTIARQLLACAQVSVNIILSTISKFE
In words: cell_activity; 293T, 72 h. Conditions: tags: NLS fusion. How it is done:
as §1, §2, §3

Data set [4] concerns the target T3, Cas13m.2 (metagenome).
T3 chain: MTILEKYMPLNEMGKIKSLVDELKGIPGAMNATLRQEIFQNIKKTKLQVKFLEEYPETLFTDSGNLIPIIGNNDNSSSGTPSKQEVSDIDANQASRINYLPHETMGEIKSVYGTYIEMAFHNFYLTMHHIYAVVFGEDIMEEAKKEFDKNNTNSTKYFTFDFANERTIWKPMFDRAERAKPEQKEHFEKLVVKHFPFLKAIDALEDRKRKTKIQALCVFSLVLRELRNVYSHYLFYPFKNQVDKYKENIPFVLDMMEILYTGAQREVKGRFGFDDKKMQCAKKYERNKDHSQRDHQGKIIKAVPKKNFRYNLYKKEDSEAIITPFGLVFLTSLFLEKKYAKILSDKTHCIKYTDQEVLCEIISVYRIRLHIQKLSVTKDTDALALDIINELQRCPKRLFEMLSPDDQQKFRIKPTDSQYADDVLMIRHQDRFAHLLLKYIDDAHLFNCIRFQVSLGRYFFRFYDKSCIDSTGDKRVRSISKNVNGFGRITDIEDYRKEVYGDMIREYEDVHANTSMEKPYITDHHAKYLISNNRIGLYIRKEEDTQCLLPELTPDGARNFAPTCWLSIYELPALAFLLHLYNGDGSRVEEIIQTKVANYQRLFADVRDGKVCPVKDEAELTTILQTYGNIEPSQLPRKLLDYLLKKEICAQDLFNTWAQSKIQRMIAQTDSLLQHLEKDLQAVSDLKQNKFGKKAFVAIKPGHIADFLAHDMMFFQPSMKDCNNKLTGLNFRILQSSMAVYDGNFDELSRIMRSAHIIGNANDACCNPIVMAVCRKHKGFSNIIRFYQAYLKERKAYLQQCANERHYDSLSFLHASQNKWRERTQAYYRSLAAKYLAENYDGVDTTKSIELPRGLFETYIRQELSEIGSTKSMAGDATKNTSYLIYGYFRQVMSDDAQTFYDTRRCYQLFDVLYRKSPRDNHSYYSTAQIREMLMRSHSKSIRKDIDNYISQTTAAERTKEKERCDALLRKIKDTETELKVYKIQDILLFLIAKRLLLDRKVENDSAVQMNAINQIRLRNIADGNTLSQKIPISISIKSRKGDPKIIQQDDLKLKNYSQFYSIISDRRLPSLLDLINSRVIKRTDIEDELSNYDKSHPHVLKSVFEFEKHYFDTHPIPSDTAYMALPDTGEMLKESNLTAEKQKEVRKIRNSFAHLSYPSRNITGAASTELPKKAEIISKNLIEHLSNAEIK
Description: cell_activity; 293T, 72 h. Conditions: tags: NLS fusion. The method, then: as §1, §2, §3

The target in data set [5] is T4, CasRfg.2 (Cas13d) (metagenome).
T4 chain: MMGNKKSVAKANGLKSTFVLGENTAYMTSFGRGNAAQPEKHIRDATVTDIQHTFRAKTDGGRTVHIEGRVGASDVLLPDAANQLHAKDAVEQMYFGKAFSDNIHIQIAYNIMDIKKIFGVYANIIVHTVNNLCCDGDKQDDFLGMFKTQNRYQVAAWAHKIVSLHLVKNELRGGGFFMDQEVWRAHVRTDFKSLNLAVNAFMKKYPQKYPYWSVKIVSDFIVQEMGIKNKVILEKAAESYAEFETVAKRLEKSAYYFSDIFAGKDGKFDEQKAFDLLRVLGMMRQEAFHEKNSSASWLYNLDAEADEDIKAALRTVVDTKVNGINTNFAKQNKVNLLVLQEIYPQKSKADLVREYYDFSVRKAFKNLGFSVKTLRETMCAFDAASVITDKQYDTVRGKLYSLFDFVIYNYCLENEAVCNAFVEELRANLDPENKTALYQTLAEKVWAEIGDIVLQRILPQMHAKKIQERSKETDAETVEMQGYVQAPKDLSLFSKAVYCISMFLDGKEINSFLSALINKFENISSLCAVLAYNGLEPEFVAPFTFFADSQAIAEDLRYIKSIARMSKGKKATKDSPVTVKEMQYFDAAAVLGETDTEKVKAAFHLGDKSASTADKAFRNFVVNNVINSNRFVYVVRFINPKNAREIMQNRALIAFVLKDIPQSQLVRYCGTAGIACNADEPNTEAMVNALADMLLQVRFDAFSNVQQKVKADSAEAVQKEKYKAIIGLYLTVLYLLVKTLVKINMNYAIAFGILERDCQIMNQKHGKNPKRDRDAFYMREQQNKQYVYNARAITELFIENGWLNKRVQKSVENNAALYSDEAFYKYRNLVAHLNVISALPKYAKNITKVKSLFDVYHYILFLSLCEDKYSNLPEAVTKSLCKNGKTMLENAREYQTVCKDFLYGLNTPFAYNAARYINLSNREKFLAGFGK
In words: cell_activity; 293T, 72 h. Conditions: tags: NLS fusion. How it is done: as §1, §2, §3

“GAAGACAAAGAGGGUCGUGG / CCACGACCCUCUUUGUCUUC” yielded an activity (relative mRNA level) in data set [1] (293T-AQp1, 72 h) of 0.05. For the molecule “GUGGUUGGAGAACUGGAUGUAGAUGGGCUG / CAGCCCAUCUACAUCCAGUUCUCCAACCAC [PTBP1 gRNA CasRx (guide part only) ; PTBP1 mRNA site]”, the activity (relative mRNA level) in data set [1] (293T, 72 h, 0.59 in Table 10) amounted to 0.6. Molecule “AGGGCAGAACCGAUGCUGAUGAAGAC / GUCUUCAUCAGCAUCGGUUCUGCCCU” had an activity (relative mRNA level) in data set [1] (control 1.00) of 0.03.

B1: PTBP1 gRNA Cas13m.3 ; PTBP1 mRNA site (ssRNA ; ssRNA)
RNA 1: GUGGUUGGAGAACUGGAUGUAGAUGGGCUGGUUGUAGAAGCCGUUCAUUCGGGACGGUAUGACAAC
RNA 2: CAGCCCAUCUACAUCCAGUUCUCCAACCAC
With B1, the activity in data set [2] was found to be 0.46 relative mRNA level.

B2: PTBP1 gRNA Cas13m.5 ; PTBP1 mRNA site (ssRNA ; ssRNA)
RNA 1: GUGGUUGGAGAACUGGAUGUAGAUGGGCUGGUUGUGUGUGCCUUUCAAAUUGAAGGCGUUCCCAAC
RNA 2: B1 RNA 2
In data set [3], B2 returned an activity of 0.7 relative mRNA level.

B3: PTBP1 gRNA Cas13m.2 ; PTBP1 mRNA site (ssRNA ; ssRNA)
RNA 1: GUGGUUGGAGAACUGGAUGUAGAUGGGCUGGUUGUAGAUGACCUCGUUUUGGAGGGGAAACACAAC
RNA 2: B1 RNA 2
B3 showed an activity in data set [4] of 0.49 relative mRNA level.

B4: PTBP1 gRNA CasRfg.2 ; PTBP1 mRNA site (ssRNA ; ssRNA)
RNA 1: GGUUUUACACCCGUGUAAAACUACACAGUUCUAAAACGUGGUUGGAGAACUGGAUGUAGAUGGGCUG
RNA 2: B1 RNA 2
In data set [5], B4 had an activity of 0.78 relative mRNA level.
